From patent US20120100166A1 (ZYNGENIA, published 2012)
Residue numbers refer to the chain shown, from its start. No end group written: not given here.

How the values were obtained:
[1] = biological target: T1, insulin-like growth factor-I receptor (IGF1R) (UniProt P08069 31-932, limits assumed); test: ELISA on coated antigen, absorbance at 405 nm, BSA-coated wells as control; single condition
T1 construct: also called immobilized IGF-1R; IGR1R

[2] = biological target: integrin αvβ3 (ELISA antigen) (UniProt P06756 31-992; P05106 27-718, limits assumed); test: ELISA on coated antigen, absorbance at 405 nm, BSA-coated wells as control; single condition; the bar is labelled Antigen, taken as the target of the MRD of the construct
Sequence of integrin αvβ3 (ELISA antigen) (P06756 31-992 limits assumed, chain 1 of 2): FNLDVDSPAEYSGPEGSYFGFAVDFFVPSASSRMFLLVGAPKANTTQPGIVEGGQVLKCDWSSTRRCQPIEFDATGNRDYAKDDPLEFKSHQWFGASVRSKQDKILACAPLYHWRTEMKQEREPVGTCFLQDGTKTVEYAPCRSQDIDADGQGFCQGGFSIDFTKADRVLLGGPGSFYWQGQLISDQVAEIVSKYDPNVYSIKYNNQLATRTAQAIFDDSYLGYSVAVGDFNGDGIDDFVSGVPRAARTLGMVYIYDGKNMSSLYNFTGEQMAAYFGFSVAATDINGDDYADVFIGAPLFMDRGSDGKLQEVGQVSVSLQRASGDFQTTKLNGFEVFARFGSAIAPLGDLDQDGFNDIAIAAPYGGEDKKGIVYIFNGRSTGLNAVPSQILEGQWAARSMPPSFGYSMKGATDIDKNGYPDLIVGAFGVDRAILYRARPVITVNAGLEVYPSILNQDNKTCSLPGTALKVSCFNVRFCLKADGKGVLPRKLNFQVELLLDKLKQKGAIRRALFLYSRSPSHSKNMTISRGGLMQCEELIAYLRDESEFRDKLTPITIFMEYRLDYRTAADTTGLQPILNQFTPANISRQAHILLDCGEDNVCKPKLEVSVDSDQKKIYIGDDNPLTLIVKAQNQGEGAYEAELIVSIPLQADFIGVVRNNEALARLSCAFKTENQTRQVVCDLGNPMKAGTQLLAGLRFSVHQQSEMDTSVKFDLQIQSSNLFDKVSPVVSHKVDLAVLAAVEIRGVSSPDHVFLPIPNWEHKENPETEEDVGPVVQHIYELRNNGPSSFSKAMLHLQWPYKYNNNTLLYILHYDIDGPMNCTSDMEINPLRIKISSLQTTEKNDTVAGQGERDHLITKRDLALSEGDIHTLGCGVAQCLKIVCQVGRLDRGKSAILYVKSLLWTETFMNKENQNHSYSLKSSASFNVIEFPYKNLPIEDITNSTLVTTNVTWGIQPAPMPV
Sequence of integrin αvβ3 (ELISA antigen) (P05106 27-718 limits assumed, chain 2 of 2): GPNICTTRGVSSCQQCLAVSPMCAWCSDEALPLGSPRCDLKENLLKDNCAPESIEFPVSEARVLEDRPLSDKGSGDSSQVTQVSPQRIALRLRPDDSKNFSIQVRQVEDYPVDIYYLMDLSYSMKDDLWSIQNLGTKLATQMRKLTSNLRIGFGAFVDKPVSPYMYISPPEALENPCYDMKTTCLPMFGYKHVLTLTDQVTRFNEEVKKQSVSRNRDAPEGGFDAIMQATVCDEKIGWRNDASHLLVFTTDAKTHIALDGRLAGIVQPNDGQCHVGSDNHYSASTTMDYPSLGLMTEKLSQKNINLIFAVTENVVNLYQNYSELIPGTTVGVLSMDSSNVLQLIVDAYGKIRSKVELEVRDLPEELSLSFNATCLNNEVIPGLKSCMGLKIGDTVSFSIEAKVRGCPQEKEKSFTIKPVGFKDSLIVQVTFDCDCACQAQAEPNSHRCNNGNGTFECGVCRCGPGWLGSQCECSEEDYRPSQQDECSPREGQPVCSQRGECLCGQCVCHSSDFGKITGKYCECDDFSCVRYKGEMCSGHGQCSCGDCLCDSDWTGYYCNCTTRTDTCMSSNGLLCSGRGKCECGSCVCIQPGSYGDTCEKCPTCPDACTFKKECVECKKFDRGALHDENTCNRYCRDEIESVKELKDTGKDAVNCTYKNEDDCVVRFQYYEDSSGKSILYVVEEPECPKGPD

angiopoietin-2 (Ang2) [3] = biological target: T2, angiopoietin-2 (Ang2) (human, UniProt O15123 68-496, limits assumed, biotinylated in Examples 22-24 (R&D cat#BT633)); test: ELISA, rhAng2 coated, MRD-MBP fusion detected with HRP anti-MBP mAb; EC50 from a 4 parameter fit
T2 construct: also called rhAng2; recombinant Ang2
T2 sequence (looked up): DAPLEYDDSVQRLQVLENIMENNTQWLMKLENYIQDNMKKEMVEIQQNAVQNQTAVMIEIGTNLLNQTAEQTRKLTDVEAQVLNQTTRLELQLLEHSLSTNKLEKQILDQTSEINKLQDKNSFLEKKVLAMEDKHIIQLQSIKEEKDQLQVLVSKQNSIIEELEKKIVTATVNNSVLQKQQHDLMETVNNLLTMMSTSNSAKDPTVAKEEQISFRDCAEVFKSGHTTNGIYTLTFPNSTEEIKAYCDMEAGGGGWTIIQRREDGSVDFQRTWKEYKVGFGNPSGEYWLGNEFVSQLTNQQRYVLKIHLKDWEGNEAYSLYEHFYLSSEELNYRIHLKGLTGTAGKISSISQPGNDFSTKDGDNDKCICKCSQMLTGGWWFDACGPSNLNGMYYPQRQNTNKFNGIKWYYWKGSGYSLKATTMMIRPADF

angiopoietin-2 (Ang2) [4] = biological target: T2, angiopoietin-2 (Ang2); test: MBP fusion protein tested for binding to Ang2; method not restated (direct-binding ELISA in Example 19)

B1: Her-1L-RP (bispecific antibody)
light (part 1 of 2): not shown
light (part 2 of 2): SSGGGGSGGGGGGSSRSSSFYSCLESLVNGPAEKSRGQWDGCRKK
heavy: not shown
notes: also called Her-lL-RP; not shown: kappa light chain constant region; heavy chain constant region
B1: no binding (tested: not shown) [1].

B2: Her-sL-RGD4C (bispecific antibody)
light (part 1 of 2): not shown
light (part 2 of 2): GGGSCDCRGDCFC
heavy: not shown
notes: also called C-terminal fusion of integrin αvβ3 targeting MRD with the ErbB2 antibody with the short linker peptide; not shown: kappa light chain constant region; heavy chain constant region
B2: no binding (tested: not shown) [2].

B3: L1-7D MTD (other)
chain: MGAQTNFMPMTDDELLLYEQFILQQGLE
With B3 the EC50 (angiopoietin-2 (Ang2) [3]) was 7.34 nM.

B4: L1-7D MHD (other)
chain: MGAQTNFMPMHDDELLLYEQFILQQGLE
B4 showed an EC50 (angiopoietin-2 (Ang2) [3]) of 17 nM.

B5: L1-7D MND (other)
chain: MGAQTNFMPMNDDELLLYEQFILQQGLE
For B5, the EC50 (angiopoietin-2 (Ang2) [3]) was 0.411 nM.

B6: L1-7D MGD (other)
chain: MGAQTNFMPMGDDELLLYEQFILQQGLE
For B6, the EC50 (angiopoietin-2 (Ang2) [3]) was 0.6 nM.

B7: Lm32 KtoS (other)
chain: PGSGGGSMGAQTNFMPMDNDELLLYEQFILQQGLE
Binder B7 has an EC50 (angiopoietin-2 (Ang2) [3]) of 0.199 nM.

B8: LM32 variant SEQ ID NO:88 expressed as MBP fusion protein (other, not shown: large carriers; small tags and cut ends)
chain: KSLSLSPGSGGGSMGAQTNFMPMDNDEGLLYEQFILQQGLE
modifications: not fully specified (N-terminus); also: fused to maltose binding protein carrier at N-terminus
B8 was tested, and the EC50 (angiopoietin-2 (Ang2) [4]) was 1.04 nM.

B9: LM32 variant SEQ ID NO:94 expressed as MBP fusion protein (other, not shown: large carriers; small tags and cut ends)
chain: B8 chain with G28A, L36Y
modifications: not fully specified (N-terminus); also: fused to maltose binding protein carrier at N-terminus
In the case of B9, the EC50 (angiopoietin-2 (Ang2) [4]) is reported as 0.392 nM.

B10: LM32 variant SEQ ID NO:90 expressed as MBP fusion protein (other, not shown: large carriers; small tags and cut ends)
chain: B8 chain with G28A
modifications: not fully specified (N-terminus); also: fused to maltose binding protein carrier at N-terminus
B10 was tested, and the EC50 (angiopoietin-2 (Ang2) [4]) was 0.182 nM.

B11: LM32 variant SEQ ID NO:97 expressed as MBP fusion protein (other, not shown: large carriers; small tags and cut ends)
chain: B8 chain with G28A, Q33E
modifications: not fully specified (N-terminus); also: fused to maltose binding protein carrier at N-terminus
Work on B11 yielded an EC50 (angiopoietin-2 (Ang2) [4]) of 0.426 nM.

B12: LM32 variant SEQ ID NO:96 expressed as MBP fusion protein (other, not shown: large carriers; small tags and cut ends)
chain: B8 chain with Q33E
modifications: not fully specified (N-terminus); also: fused to maltose binding protein carrier at N-terminus
For B12, the EC50 (angiopoietin-2 (Ang2) [4]) was 0.922 nM.

B13: LM32 variant SEQ ID NO:100 expressed as MBP fusion protein (other, not shown: large carriers; small tags and cut ends)
peptide: B8 chain with N25D, G28L
modifications: not fully specified (N-terminus); also: fused to maltose binding protein carrier at N-terminus
Binder B13 has an EC50 (angiopoietin-2 (Ang2) [4]) of 0.24 nM.

B14: LM32 variant SEQ ID NO:93 expressed as MBP fusion protein (other, not shown: large carriers; small tags and cut ends)
chain: B8 chain with L36Y
modifications: not fully specified (N-terminus); also: fused to maltose binding protein carrier at N-terminus
B14 showed an EC50 (angiopoietin-2 (Ang2) [4]) of 0.902 nM.

B15: LM32 variant SEQ ID NO:91 expressed as MBP fusion protein (other, not shown: large carriers; small tags and cut ends)
chain: B8 chain with G28L, L29T
modifications: not fully specified (N-terminus); also: fused to maltose binding protein carrier at N-terminus
B15 gave an EC50 (angiopoietin-2 (Ang2) [4]) of 1.42 nM.

B16: LM32 variant SEQ ID NO:99 expressed as MBP fusion protein (other, not shown: large carriers; small tags and cut ends)
chain: B8 chain with N25Q, G28L
modifications: not fully specified (N-terminus); also: fused to maltose binding protein carrier at N-terminus
In the case of B16, the EC50 (angiopoietin-2 (Ang2) [4]) is reported as 0.383 nM.

B17: LM32 variant SEQ ID NO:142 expressed as MBP fusion protein (other, not shown: large carriers; small tags and cut ends)
chain: KSLSLSPGSGGGSMGAQTNFMPMDNDELLLYEQFI
modifications: not fully specified (N-terminus); also: fused to maltose binding protein carrier at N-terminus
Work on B17 yielded an EC50 (angiopoietin-2 (Ang2) [4]) of 1.08 nM.

B18: LM32 variant SEQ ID NO:143 expressed as MBP fusion protein (other, not shown: large carriers; small tags and cut ends)
chain: B17 chain with D26E
modifications: not fully specified (N-terminus); also: fused to maltose binding protein carrier at N-terminus
B18 showed an EC50 (angiopoietin-2 (Ang2) [4]) of 20.7 nM.

B19: L1-7D MSD (other)
chain: MGAQTNFMPMSDDELLLYEQFILQQGLE
In the case of B19, the EC50 (angiopoietin-2 (Ang2) [3]) is reported as 1.38 nM.
